Changes are numbered by the printed parent chain. Numbers in names are those of the source. One block for each binder: values may come before it.
Key:
human CSF1R-Fc ECD = molecular target: T1, human CSF1R-Fc ECD (human, UniProt P07333 20-517); test: ELISA, plate coated with 2 µg/mL human CSF1R, monovalent antibody titrated, anti-human Fc HRP
T1 construct: extracellular domain; not shown: Fc part of the coated reagent, not described
Method: Microplates were separately coated with 2 μg/mL of human or cyno CSF1R in 100 μL and blocked with 2% BSA. Serial dilutions of unlabeled monovalent human antibodies (11 points, 3-fold dilutions, 400 nM to […]) were transferred to the coated and blocked plates at 75 μL/well and incubated for 1 hr at room temperature. Plates were washed three times and incubated for 30 mins with anti-human Fc horseradish peroxidase conjugate followed by addition of TMB, a substrate of HRP. The plates were developed for 5 mins, stopped with 1M HCL and read at a wavelength of 450 nm.

human CSF1R [1] = molecular target: T2, human CSF1R (human, UniProt P07333 20-972); test: flow cytometry on HEK-293T cells stably transduced with human CSF1R; anti-human Fc APC; percent APC positive
T2 construct: whole, on cells; also called hCSF1R
Method: HEK-293T cells were lentivirally transduced with human CSF1R and stable cell lines were generated. Nearly all transduced cells expressed high levels of CSF1R. Cells were washed with PBS containing 0.5% BSA and 0.1% sodium azide (staining buffer) and added to 96-well V-bottom plates with 100,000 cells/well. Human anti-CSF1R monovalent antibodies were added to the cells in 2.5 fold serial dilutions and incubated for 2 hour at room temperature. The plates were washed twice with staining buffer. The secondary antibody against human Fc conjugated to APC was added at 1:200 dilution (1.5 mg/ml stock) and incubated with the cells for 1 hour at 4° C. followed by washing with staining buffer. Cells were subsequently stained with a live/dead dye to exclude any dying cells and were fixed for 10 minutes with 4% paraformaldehyde at room temperature. The plates were read on CytoFLEX LS (Beckman Coulter). Data was calculated as the percent-APC positive population.

human CSF1R [2] = molecular target: T2, human CSF1R; test: cell-based or functional assay

T2 sequence (P07333 20-972): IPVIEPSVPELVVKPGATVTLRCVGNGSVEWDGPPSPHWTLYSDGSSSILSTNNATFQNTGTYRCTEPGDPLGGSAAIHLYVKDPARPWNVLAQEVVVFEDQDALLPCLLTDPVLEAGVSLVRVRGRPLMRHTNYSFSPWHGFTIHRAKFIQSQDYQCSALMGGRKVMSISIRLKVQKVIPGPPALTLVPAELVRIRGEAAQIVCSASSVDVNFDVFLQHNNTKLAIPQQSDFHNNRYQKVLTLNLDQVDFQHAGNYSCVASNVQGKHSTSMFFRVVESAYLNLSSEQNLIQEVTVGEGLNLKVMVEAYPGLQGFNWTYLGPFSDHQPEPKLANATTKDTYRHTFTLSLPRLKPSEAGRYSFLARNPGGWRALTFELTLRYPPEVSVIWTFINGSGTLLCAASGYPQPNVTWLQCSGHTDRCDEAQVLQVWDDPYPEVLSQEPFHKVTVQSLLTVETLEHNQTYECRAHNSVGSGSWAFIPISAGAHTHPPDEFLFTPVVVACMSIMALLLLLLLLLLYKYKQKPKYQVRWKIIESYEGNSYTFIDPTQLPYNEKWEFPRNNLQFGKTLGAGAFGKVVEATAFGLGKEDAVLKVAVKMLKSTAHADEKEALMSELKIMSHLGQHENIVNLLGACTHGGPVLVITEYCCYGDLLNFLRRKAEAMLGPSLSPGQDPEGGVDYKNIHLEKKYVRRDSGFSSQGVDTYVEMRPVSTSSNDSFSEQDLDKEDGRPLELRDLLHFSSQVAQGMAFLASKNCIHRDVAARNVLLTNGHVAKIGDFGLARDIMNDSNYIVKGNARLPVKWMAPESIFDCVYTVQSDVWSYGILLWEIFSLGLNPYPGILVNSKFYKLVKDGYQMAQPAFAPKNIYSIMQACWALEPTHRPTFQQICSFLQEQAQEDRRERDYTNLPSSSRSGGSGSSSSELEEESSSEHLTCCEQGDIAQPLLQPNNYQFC
T1 sequence (P07333 20-517): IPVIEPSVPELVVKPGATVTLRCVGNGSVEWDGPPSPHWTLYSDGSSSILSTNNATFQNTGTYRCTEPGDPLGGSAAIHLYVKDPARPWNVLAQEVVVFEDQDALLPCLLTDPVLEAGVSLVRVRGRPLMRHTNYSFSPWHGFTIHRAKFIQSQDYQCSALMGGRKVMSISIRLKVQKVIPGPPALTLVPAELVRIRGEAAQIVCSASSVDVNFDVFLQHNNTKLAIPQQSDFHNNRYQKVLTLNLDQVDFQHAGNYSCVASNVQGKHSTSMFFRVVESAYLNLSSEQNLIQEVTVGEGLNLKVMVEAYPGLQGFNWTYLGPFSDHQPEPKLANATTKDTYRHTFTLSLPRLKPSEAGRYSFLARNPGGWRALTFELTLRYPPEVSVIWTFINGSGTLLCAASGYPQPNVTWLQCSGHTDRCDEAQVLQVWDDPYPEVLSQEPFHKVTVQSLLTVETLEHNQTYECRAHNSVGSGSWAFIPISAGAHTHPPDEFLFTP

- binding result (human CSF1R-Fc ECD): binds
- binding result (human CSF1R [1]): binds
B1: BIM0552 (antibody, human IgG1, lambda)
heavy: EVQLVESGGGLVQPGGSLRLSCAASGFTFSNDEMNWIRQAPGKGLEWVSYISSRSSTIYYADAVKGRFTISRDNARNSLYLQMNSLRAEDTAVYYCARGVDGDFSFDYWGQGTLVTVSSASTKGPSVFPLAPSSKSTSGGTAALGCLVKDYFPEPVTVSWNSGALTSGVHTFPAVLQSSGLYSLSSVVTVPSSSLGTQTYICNVNHKPSNTKVDKRVEPKSCDKTHTCPPCPAPELLGGPSVFLFPPKPKDTLMISRTPEVTCVVVDVSHEDPEVKFNWYVDGVEVHNAKTKPREEQYNSTYRVVSVLTVLHQDWLNGKEYKCKVSNKALPAPIEKTISKAKGQPREPQVCTLPPSREEMTKNQVSLSCAVKGFYPSDIAVEWESNGQPENNYKTTPPVLDSDGSFFLVSKLTVDKSRWQQGNVFSCSVMHEALHNHYTQKSLSLSPGK
light: QLVLTQPPSVSGAPGQRVTISCTGSSSNIGAGYDVHWYQQLPGTAPKLLIYGNSNRPSGVPDRFSGSKSGTSASLAITGLQAEDEADYYCQSYDSSLSEEVFGGGTKLTVLGQPKANPTVTLFPPSSEELQANKATLVCLISDFYPGAVTVAWKADGSPVKAGVETTKPSKQSNNKYAASSYLSLTPEQWKSHRSYSCQVTHEGSTVEKTVAPTECS
chain: not shown
notes: Heavy chain entry ends in X = K or absent; also called multispecific molecule 80; aCSF1R BI117 half-arm antibody

- binding result (human CSF1R-Fc ECD): binds
- binding result (human CSF1R [1]): binds
B2: BIM0550 (antibody, human IgG1, lambda)
heavy: B1 heavy with R54S, K65T
light: B1 light
chain: not shown
notes: Half-arm (monovalent) anti-human CSF1R antibody, three chains as BIM0542; Heavy chain entry ends in X = K or absent; also called multispecific molecule 78; aCSF1R BI117 A11-R3B half-arm antibody

- binding result (human CSF1R-Fc ECD): binds
- binding result (human CSF1R [1]): binds
B3: BIM0567 (antibody, human IgG1, lambda)
heavy: B1 heavy with D101E, G102S
light: B1 light
chain: not shown
notes: Half-arm (monovalent) anti-human CSF1R antibody, three chains as BIM0542; Heavy chain entry ends in X = K or absent; also called multispecific molecule 86; aCSF1R BI117 D11-R3B half-arm antibody

- binding result (human CSF1R-Fc ECD): binds
- binding result (human CSF1R [1]): binds
B4: BIM0547 (antibody, human IgG1, lambda)
heavy: B1 heavy with S52T, R54K
light: B1 light
chain: not shown
notes: Half-arm (monovalent) anti-human CSF1R antibody, three chains as BIM0542; Heavy chain entry ends in X = K or absent; also called multispecific molecule 75; aCSF1R BI117 G12-R2B half-arm antibody

- binding result (human CSF1R-Fc ECD): binds
- binding result (human CSF1R [1]): binds
B5: BIM0546 (antibody, human IgG1, lambda)
heavy: B1 heavy with Y108V
light: B1 light
chain: not shown
notes: Half-arm (monovalent) anti-human CSF1R antibody, three chains as BIM0542; Heavy chain entry ends in X = K or absent; also called multispecific molecule 74; aCSF1R BI117 G1-R2B half-arm antibody

- IC50 of reduction of MCP-1 (CCL2) secretion by human monocytes cultured with hCSF-1 (electrochemiluminescence) (human CSF1R [2]): ≤ 30 nM
B6: BIM0548 (antibody, human IgG1, lambda)
heavy: B1 heavy with G99S, F104G
light: B1 light
chain: not shown

- binding result (human CSF1R-Fc ECD): binds
- binding result (human CSF1R [1]): binds
B7: BIM0544 (antibody, human IgG1, lambda)
heavy: B1 heavy with G99N, V100S, G102E, F104G
light: B1 light
chain: not shown
notes: Half-arm (monovalent) anti-human CSF1R antibody, three chains as BIM0542; Heavy chain entry ends in X = K or absent; also called multispecific molecule 72; aCSF1R BI117 D1-R2A half-arm antibody

- binding result (human CSF1R-Fc ECD): binds
- binding result (human CSF1R [1]): binds
B8: BIM0542 (antibody, human IgG1, lambda)
heavy: B1 heavy with R54G
light: B1 light
chain: not shown
notes: Heavy chain entry ends in X = K or absent; also called multispecific molecule 70; aCSF1R BI117 C5-R2A half-arm antibody

- binding result (human CSF1R-Fc ECD): binds
- binding result (human CSF1R [1]): binds
B9: BIM0545 (antibody, human IgG1, lambda)
heavy: B1 heavy with S52T, R54K, A63S
light: B1 light
chain: not shown
notes: Half-arm (monovalent) anti-human CSF1R antibody, three chains as BIM0542; Heavy chain entry ends in X = K or absent; also called multispecific molecule 73; aCSF1R BI117 E2-R2B half-arm antibody

- binding result (human CSF1R-Fc ECD): binds
- binding result (human CSF1R [1]): binds
B10: BIM0551 (antibody, human IgG1, lambda)
heavy: B1 heavy with G99N, V100S, G102S, F104G, Y108I
light: B1 light
chain: not shown
notes: Half-arm (monovalent) anti-human CSF1R antibody, three chains as BIM0542; Heavy chain entry ends in X = K or absent; also called multispecific molecule 79; aCSF1R BI117 B2-R3B half-arm antibody

- binding result (human CSF1R-Fc ECD): binds
- binding result (human CSF1R [1]): binds
B11: BIM0553 (antibody, human IgG1, lambda)
heavy: B1 heavy with Y108F
light: B1 light
chain: not shown
notes: Half-arm (monovalent) anti-human CSF1R antibody, three chains as BIM0542; Heavy chain entry ends in X = K or absent; also called multispecific molecule 81; aCSF1R BI117 C5-R3B half-arm antibody

- binding result (human CSF1R-Fc ECD): binds
- binding result (human CSF1R [1]): binds
B12: BIM0543 (antibody, human IgG1, lambda)
heavy: B1 heavy with Y50F, S53G, R54G
light: B1 light
chain: not shown
notes: Half-arm (monovalent) anti-human CSF1R antibody, three chains as BIM0542; Heavy chain entry ends in X = K or absent; also called multispecific molecule 71; aCSF1R BI117 C9-R2A half-arm antibody

- binding result (human CSF1R-Fc ECD): binds
- binding result (human CSF1R [1]): binds
B13: BIM0549 (antibody, human IgG1, lambda)
heavy: B1 heavy with G99S, V100S, D103S, F104T
light: B1 light
chain: not shown
notes: Half-arm (monovalent) anti-human CSF1R antibody, three chains as BIM0542; Heavy chain entry ends in X = K or absent; also called multispecific molecule 77; aCSF1R BI117 A6-R3B half-arm antibody

- binding result (human CSF1R-Fc ECD): binds
- binding result (human CSF1R [1]): binds
B14: BIM0566 (antibody, human IgG1, lambda)
heavy: B1 heavy with G99S, V100G, D101R, G102L, F104G
light: B1 light
chain: not shown
notes: Half-arm (monovalent) anti-human CSF1R antibody, three chains as BIM0542; Heavy chain entry ends in X = K or absent; also called multispecific molecule 85; aCSF1R BI117 C6-R3B half-arm antibody

- IC50 of reduction of MCP-1 (CCL2) secretion by human monocytes cultured with hCSF-1 (electrochemiluminescence) (human CSF1R [2]): ≤ 30 nM
B15: BIM0554 (antibody, human IgG1, lambda)
heavy: not shown
light: SLVLTQPPSVSVAPGKTARITCGGNNIGSKSVHWYQQKPGQAPVLVVYDDSDRPSGIPERFSGSNSGNTATLTISRVEAGDEADYYCQVWDSSSDHVVFGGGTQLTVLGQPKANPTVTLFPPSSEELQANKATLVCLISDFYPGAVTVAWKADGSPVKAGVETTKPSKQSNNKYAASSYLSLTPEQWKSHRSYSCQVTHEGSTVEKTVAPTECS
chain: not shown

- binding result (human CSF1R-Fc ECD): binds
- binding result (human CSF1R [1]): binds
B16: BIM0556 (antibody, human IgG1, lambda)
heavy: not shown
light: B15 light
chain: not shown
notes: Half-arm (monovalent) anti-human CSF1R antibody, three chains as BIM0542; Heavy chain entry ends in X = K or absent; also called multispecific molecule 84; aCSF1R BI123 C1-R3B half-arm antibody

- binding result (human CSF1R-Fc ECD): binds
- binding result (human CSF1R [1]): binds
B17: BIM0555 (antibody, human IgG1, lambda)
heavy: not shown
light: B15 light
chain: not shown
notes: Half-arm (monovalent) anti-human CSF1R antibody, three chains as BIM0542; Heavy chain entry ends in X = K or absent; also called multispecific molecule 83; aCSF1R BI123 B6-R3B half-arm antibody
